Reference: patent US8808698B2, “Methods for inhibition of lymphangiogenesis and tumor metastasis” (The Regents of the University of California, priority 2006, dated 2014)
“Also recorded” adds a separate entry of the source.

B1: VEGF-C: lymphangiogenesis-promoting growth factor (R&D Systems) used as stimulus (protein, UniProt P49767 112-227, looked up)
Vascular endothelial growth …: AHYNTEILKSIDNEWRKTQCMPREVCIDVGKEFGVATNTFFKPPCVSVYRCGGCCNSEGLQCMNTSTSYLSKTLFEITVPLSQGPKPVTISFANHTSCRCMSKLDVYRQVHSIIRR

What was measured:
lymphatic vessels = experiment: Murine lymphangiogenesis and angiogenesis assay in growth factor MATRIGEL plugs; format: in vivo; conditions: mice, 400 ng growth factor
Protocol: (§1) Lymphangiogenesis and angiogenesis assays in MATRIGEL were performed as described (Eliceiri et al, 1999, Mol. Cell 4:915) by injecting subcutaneously into wild-type C57B1/6 mice (n=5) 400 μL of cold MATRIGEL containing 400 ng of bFGF, VEGF-A, or VEGF-C (R&D Systems, Minneapolis, Minn.). Mice were then injected twice at day1 and day3 with 200 μl of blocking anti-α4β1 (PS2) or anti-α5β1 (5H10) antibodies, or isotype control antibody. After 7 days, MATRIGEL plugs were removed, embedded in OCT, frozen and sectioned. Thin sections (5 μm) were immunostained with anti-CD31 antibodies.
For quantification, vessel numbers, tumor foci or pixel number in 10 microscopic fields per cryosection (per animal) were quantified and the mean number of vessels+/−s.e.m. for the entire treatment group was determined.

LLC cells = experiment: Transwell migration of LLC cells; format: cell-based, murine; conditions: 10, 100 or 500 ng/ml
Protocol: FIG. 29. Analysis of LLC cell expression of integrin α4 and VEGF-R3. A) Expression of VEGF-R3, integrins α5β1 and α4β1 (black lines) on LLC cells was evaluated by flow cytometry. Grey lines depict binding of isotype matched control IgG. While 100% of cells express integrin α5β1, none express α4β1 or VEGF-R3. B) Transwell migration of LLC cells in the presence or absence of serum or VEGF-C at 10, 100 or 500 ng/ml.

lymph nodes [1] = experiment: Systemic or local VEGF-C injections in normal mice, lymph node lymphangiogenesis; format: in vivo
Lewis lung carcinoma = experiment: Local VEGF-C stimulation of lymph nodes in LLC tumor-bearing mice; format: in vivo
Protocol: (§2) C57BL/6 mice were injected subcutaneously with 350 μl of ice-cold saline or VEGF-C-containing Matrigel (1 μg/ml) proximal to the inguinal lymph node. In parallel, 5×10^5 LLC cells were injected dorsally near the inguinal or brachial lymph nodes. Mice were sacrificed after 1, 7 and 14 days. Mice with stimulated inguinal nodes were also sacrificed after 21 days. Inguinal, brachial and mesenteric lymph nodes were removed and embedded in OCT for cryosectioning and immunohistochemistry.

RFP-LLC cells = experiment: Experimental footpad injection metastasis study (RFP-LLC); format: in vivo, mice
Protocol: Inguinal lymph node lymphangiogenesis was stimulated by injecting mice intradermally above the left inguinal lymph node with 50 μl of saline or VEGF-C (200 ng per mice) every day for 7 days. Mice were inoculated with 10^6 RFP-LLC cells in a volume of 150 μl in the left footpad. Twenty four hours later, mice were sacrificed. Inguinal, brachial and mesenteric lymph nodes were removed and embedded in OCT for cryosectioning and immunofluorescence. RFP-tumor cell and Lyve-1+pixels were quantified on 5 different sections per lymph node.

lymph nodes [2] = experiment: Lymph node lymphangiogenesis proximal to implanted VEGF-C MATRIGEL; format: in vivo, mice
Protocol: as §1, §2

Molecule | invasion of growth factor saturated MATRIGEL by new lymphatic vessels (lymphatic vessels) | LLC cell migration in response to growth factor (LLC cells) | lymph node lymphangiogenesis after local injections proximal to a single lymph node (lymph nodes [1]; normal mice, local) | lymph node lymphangiogenesis after systemic injections (lymph nodes [1]; normal mice, systemic) | blood vessels within lymph nodes (CD31+ pixels/field) (lymph nodes [1]; versus saline) | lymphatic vessel density in draining (inguinal) lymph node (Lewis lung carcinoma; local injection, versus saline) | lymphangiogenesis and metastasis to other lymph nodes (Lewis lung carcinoma; local stimulation of inguinal node) | primary tumor growth (tumor volume) (Lewis lung carcinoma; local stimulation of inguinal node, after 21 days) | time at which tumor metastases were induced (Lewis lung carcinoma; local stimulation of inguinal node, 21 days for saline treated animals) [days] | lymphangiogenesis in stimulated distant (brachial) lymph node (Lewis lung carcinoma; stimulation of brachial node) | metastasis to stimulated distant (brachial) lymph node (Lewis lung carcinoma; stimulation of brachial node) | rate of lymphangiogenesis or metastasis to inguinal or mesenteric nodes (Lewis lung carcinoma; stimulation of brachial node) | tumor cell retention in the stimulated inguinal lymph node (RFP-LLC cells; RFP-LLC into footpad, 24 h) | tumor cell retention in unstimulated brachial or mesenteric lymph nodes (RFP-LLC cells; RFP-LLC into footpad, 24 h) | lymphangiogenesis in stimulated inguinal lymph node (RFP-LLC cells; intradermal injections for 7 days, non-tumor bearing mice, versus saline) | lymph node lymphatic vessel density / lymphangiogenesis (lymph nodes [2]; VEGF-C stimulated lymph nodes) | lymph node size (lymph nodes [2]; lymph nodes proximal to implanted MATRIGEL containing VEGF-C)
bFGF: angiogenic growth factor (R&D Systems) [reference compound] | new lymphatic vessels invade |  |  |  |  |  |  |  |  |  |  |  |  |  |  |  | 
B1 | new lymphatic vessels invade | do not migrate | specifically affected this and not other nodes | Widespread lymph node lymphangiogenesis | no significant effect; also recorded: No statistical difference | significantly increased | no effect | no effect; also recorded: No statistical difference | ≤ 14 | selectively enhanced | accelerated metastasis by one week | without affecting | strongly enhanced | not and No statistical difference | significantly induced | significant increase | expanded dramatically in size
